We go through 16 molecules from patent US20250188189A1 (published 2025).

The labels stand for the following.
T1: plasma-derived human activated protein C (APC) (UniProt P04070 43-461)
T1 chain: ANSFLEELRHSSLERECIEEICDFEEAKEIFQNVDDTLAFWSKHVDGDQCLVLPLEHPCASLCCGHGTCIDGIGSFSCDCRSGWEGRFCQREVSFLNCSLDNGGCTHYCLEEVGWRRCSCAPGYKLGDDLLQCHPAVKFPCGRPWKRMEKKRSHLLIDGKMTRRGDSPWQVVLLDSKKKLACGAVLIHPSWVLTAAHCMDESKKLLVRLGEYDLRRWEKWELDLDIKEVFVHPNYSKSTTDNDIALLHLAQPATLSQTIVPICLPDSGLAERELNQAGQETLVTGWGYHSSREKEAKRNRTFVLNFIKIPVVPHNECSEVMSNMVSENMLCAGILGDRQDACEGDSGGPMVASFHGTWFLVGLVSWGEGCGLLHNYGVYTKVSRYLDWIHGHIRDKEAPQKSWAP

B1: TPP-26935 (antibody, V domains shown)
VH: EVQLVESGGGLVQPGGSLRLSCAASGFTFSNYYINWVRQAPGKGLEWVGDIRLKSNNYEKHYAESVKGRFTISRDDSKNSLYLQMNSLKTEDTAVYYCAREGDYFDYWGQGTLVTVSS
VL: EIVLTQSPGTLSLSPGERATLSCRASQSVSSFGATFMHWYQQKPGQPPKLLIYLASNRASGVPDRFSGSGSGTDFTLKISRVEAEDVGVYYCQQNNEDPYTFGQGTKLEIKR
B2: TPP-26925 (antibody, V domains shown)
VH: EVQLVESGGGLVQPGGSLRLSCAASGFTFSNYYMSWVRQAPGKGLEWVGDIRLKSNNYEKHYAESVKGRFTISRDDSKNSLYLQMNSLKTEDTAVYYCAREGDYFDYWGQGTLVTVSS
VL: DIVLTQSPASLAVSPGQRATITCKASQSVSSFGATFMHWYLQKPGQSPQLLIYLASNRASGVPDRFSGSGSGTDFTLKISRVEAEDVGVYYCQQNNEDPYTFGQGTKLEIKR
B3: TPP-26869 (antibody, V domains shown)
VH: EVQLVESGGGLVQPGGSLRLSCAASGFTFSNYYMNWVRQAPGKGLEWVSYISSSSSTIYYADSVKGRFTISRDDSKNSLYLQMNSLKTEDTAVYYCAREGDYFDYWGQGTLVTVSS
VL: EIVLTQSPGTLSLSPGERATLSCRASQSVSSFGATFMHWYQQKPGQPPKLLIYLASNRASGVPDRFSGSGSGTDFTLTINPVEADDTANYYCQQNNEDPYTFGQGTKLEIKR
B4: TPP-26924 (antibody, V domains shown)
VH: EVQLVESGGGLVQPGGSLRLSCAASGFTFSNYYMSWVRQAPGKGLEWVGDIRLKSNNYEKHYAESVKGRFTISRDDSKNSLYLQMNSLKTEDTAVYYCAREGDYFDYWGQGTLVTVSS
VL: DIVLTQSPASLAVSPGQRATITCKASQSVSSFGATFMHWYLQKPGQSPQLLIYLASNRASGVPDRFSGSGSGTDFTLTINPVEADDTANYYCQQNNEDPYTFGQGTKLEIKR
B5: TPP-26918 (antibody, V domains shown)
VH: EVQLVESGGGLVQPGGSLRLSCAASGFTFSNYYMSWVRQAPGKGLEWVGDIRLKSNNYEKHYAESVKGRFTISRDDSKNSLYLQMNSLKTEDTAVYYCAREGDYFDYWGQGTLVTVSS
VL: DIVLTQSPASLAVSPGQRATITCKASESVDSFGATFMHWYQQKPGQPPKLLIYLASNRASGVPDRFSGSGSGTDFTLKISRVEAEDVGVYYCQQNNEDPYTFGQGTKLEIKR
B6: TPP-26882 (antibody, V domains shown)
VH: EVQLVESGGGLVQPGGSLRLSCAASGFTFSNYYMNWVRQAPGKGLEWVGRIKSKTDGGTTDYAAPVKGRFTISRDDSKNSLYLQMNSLKTEDTAVYYCAREGDYFDYWGQGTLVTVSS
VL: EIVLTQSPGTLSLSPGERATLSCRASQSVSSFGATFMHWYQQKPGQPPKLLIYLASNRASGVPDRFSGSGSGTDFTLTINPVEADDTANYYCQQNNEDPYTFGQGTKLEIKR
B7: TPP-26864 (antibody, V domains shown)
VH: EVQLVESGGGLVQPGGSLRLSCAASGFTFSNYYMNWVRQAPGKGLEWVSYISSSSSTIYYADSVKGRFTISRDDSKNSLYLQMNSLKTEDTAVYYCAREGDYFDYWGQGTLVTVSS
VL: EIVLTQSPGTLSLSPGERATLSCRASESVDSFGATFMHWYLQKPGQSPQLLIYLASNRASGVPDRFSGSGSGTDFTLKISRVEAEDVGVYYCQQNNEDPYTFGQGTKLEIKR
B8: TPP-26921 (antibody, V domains shown)
VH: EVQLVESGGGLVQPGGSLRLSCAASGFTFSNYYMSWVRQAPGKGLEWVGDIRLKSNNYEKHYAESVKGRFTISRDDSKNSLYLQMNSLKTEDTAVYYCAREGDYFDYWGQGTLVTVSS
VL: EIVLTQSPGTLSLSPGERATLSCRASQSVSSFGATFMHWYQQKPGQPPKLLIYLASNRASGVPDRFSGSGSGTDFTLTINPVEADDTANYYCQQNNEDPYTFGQGTKLEIKR
B9: TPP-26874 (antibody, V domains shown)
VH: EVQLVESGGGLVQPGGSLRLSCAASGFTFSNYYMNWVRQAPGKGLEWVSYISSSSSTIYYADSVKGRFTISRDDSKNSLYLQMNSLKTEDTAVYYCAREGDYFDYWGQGTLVTVSS
VL: DIVLTQSPASLAVSPGQRATITCKASQSVSSFGATFMHWYQQKPGQPPKLLIYLASNRASGVPDRFSGSGSGTDFTLKISRVEAEDVGVYYCQQNNEDPYTFGQGTKLEIKR
B10: TPP-26894 (antibody, V domains shown)
VH: EVQLVESGGGLVQPGGSLRLSCAASGFTFSNYYMNWVRQAPGQGLEWMGRIIPILGIANYAQKFQGRFTISRDDSKNSLYLQMNSLKTEDTAVYYCAREGDYFDYWGQGTLVTVSS
VL: EIVLTQSPGTLSLSPGERATLSCRASQSVSSFGATFMHWYLQKPGQSPQLLIYLASNRASGVPDRFSGSGSGTDFTLKISRVEAEDVGVYYCQQNNEDPYTFGQGTKLEIKR
B11: TPP-26871 (antibody, V domains shown)
VH: EVQLVESGGGLVQPGGSLRLSCAASGFTFSNYYMNWVRQAPGKGLEWVSYISSSSSTIYYADSVKGRFTISRDDSKNSLYLQMNSLKTEDTAVYYCAREGDYFDYWGQGTLVTVSS
VL: DIVLTQSPASLAVSPGQRATITCKASQSVSSFGATFMHWYQQKPGQPPKLLIYLASNRASGVPDRFSGSGSGTDFTLTINPVEADDTANYYCQQNNEDPYTFGQGTKLEIKR
B12: TPP-26873 (antibody, V domains shown)
VH: EVQLVESGGGLVQPGGSLRLSCAASGFTFSNYYMNWVRQAPGKGLEWVSYISSSSSTIYYADSVKGRFTISRDDSKNSLYLQMNSLKTEDTAVYYCAREGDYFDYWGQGTLVTVSS
VL: DIVLTQSPASLAVSPGQRATITCKASQSVSSFGATFMHWYLQKPGQSPQLLIYLASNRASGVPDRFSGSGSGTDFTLKISRVEAEDVGVYYCQQNNEDPYTFGQGTKLEIKR
B13: TPP-26872 (antibody, V domains shown)
VH: EVQLVESGGGLVQPGGSLRLSCAASGFTFSNYYMNWVRQAPGKGLEWVSYISSSSSTIYYADSVKGRFTISRDDSKNSLYLQMNSLKTEDTAVYYCAREGDYFDYWGQGTLVTVSS
VL: DIVLTQSPASLAVSPGQRATITCKASQSVSSFGATFMHWYLQKPGQSPQLLIYLASNRASGVPDRFSGSGSGTDFTLTINPVEADDTANYYCQQNNEDPYTFGQGTKLEIKR
B14: TPP-26863 (antibody, V domains shown)
VH: EVQLVESGGGLVQPGGSLRLSCAASGFTFSNYYMNWVRQAPGKGLEWVSYISSSSSTIYYADSVKGRFTISRDDSKNSLYLQMNSLKTEDTAVYYCAREGDYFDYWGQGTLVTVSS
VL: DIVMTQSPLSLPVTPGEPASISCRSSESVDSFGATFMHWYLQKPGQSPQLLIYLASNRASGVPDRFSGSGSGTDFTLKISRVEAEDVGVYYCQQNNEDPYTFGQGTKLEIKR
B15: TPP-26862 (antibody, V domains shown)
VH: EVQLVESGGGLVQPGGSLRLSCAASGFTFSNYYMNWVRQAPGKGLEWVSYISSSSSTIYYADSVKGRFTISRDDSKNSLYLQMNSLKTEDTAVYYCAREGDYFDYWGQGTLVTVSS
VL: DIVMTQSPLSLPVTPGEPASISCRSSESVDSFGATFMHWYQQKPGQPPKLLIYLASNRASGVPDRFSGSGSGTDFTLKISRVEAEDVGVYYCQQNNEDPYTFGQGTKLEIKR
B16: TPP-24833 (antibody, V domains shown)
VL: DIVLTQSPASLAVSPGQRATITCKASESVDSFGATFMHWYLQKPGQSPQLLIYLASNLESGVPARFSGSGSGTDFTLKISRVEAEDVGVYYCQQNNEDPYTFGQGTKLEIK

The first test concerns the target T1, plasma-derived human activated protein …. Briefly: SPR.
For the molecule B1, the Kd is 18.6 nM.
Still for that read-out and setting: the same measure for B2: 27.9 nM.
Same read-out and setting: for B3 the value was 13.5 nM.
The same measure, in the same setting: the same measure for B4: 27.5 nM; for B5: 13.4 nM; for B6: 169 nM.
On to B7, for which the Kd worked out at 8.79 nM.
The molecule B8 displayed a Kd of 31.1 nM.
Molecule B9 registered a Kd of 13.2 nM.
On the same count and under the same terms, the same measure for B10: 142 nM; for B11: 13.8 nM; for B12: 11.2 nM.
The same measure, in the same setting: for B13 the value was 12.8 nM.
As for B14, binding was characterised by a dissociation constant (Kd) of 11.2 nM.
Consider B15, for which the Kd was determined as 13.5 nM.

Another test has the same target. As to the kind of experiment: SPR. The source holds these as a separate data set.
The molecule B16 gave a Kd of 49 nM.
